Reference: EP1410040B1
One block for each molecule: values may come before it.

Key:
[1] = molecular target: full length STAT6 (human) (UniProt P42226); test: cell-based or functional assay
[2] = molecular target: GST-STAT6 aa 677-847 protein (human); test: ELISA: 500 ng GST-STAT6 (677-847) coated, 250 ng His-NCoA-1 added, detected by Penta-His and anti-mouse-HRP; average of three experiments, s.d. 0,036
GST-STAT6 aa 677-847 protein (human), sequence (chain, as listed by the source limits assumed): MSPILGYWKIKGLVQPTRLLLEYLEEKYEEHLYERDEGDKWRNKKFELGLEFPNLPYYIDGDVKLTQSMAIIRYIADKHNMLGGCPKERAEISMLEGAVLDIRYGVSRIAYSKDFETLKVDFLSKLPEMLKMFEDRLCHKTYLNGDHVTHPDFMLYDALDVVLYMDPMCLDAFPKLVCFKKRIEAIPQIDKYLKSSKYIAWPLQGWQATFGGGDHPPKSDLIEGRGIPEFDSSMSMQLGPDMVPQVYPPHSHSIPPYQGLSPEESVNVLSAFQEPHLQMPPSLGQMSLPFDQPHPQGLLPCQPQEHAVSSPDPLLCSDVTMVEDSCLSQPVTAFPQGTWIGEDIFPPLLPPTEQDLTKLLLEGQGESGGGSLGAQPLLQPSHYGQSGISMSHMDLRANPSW

UniProt P42226, sequence (P42226 2-847): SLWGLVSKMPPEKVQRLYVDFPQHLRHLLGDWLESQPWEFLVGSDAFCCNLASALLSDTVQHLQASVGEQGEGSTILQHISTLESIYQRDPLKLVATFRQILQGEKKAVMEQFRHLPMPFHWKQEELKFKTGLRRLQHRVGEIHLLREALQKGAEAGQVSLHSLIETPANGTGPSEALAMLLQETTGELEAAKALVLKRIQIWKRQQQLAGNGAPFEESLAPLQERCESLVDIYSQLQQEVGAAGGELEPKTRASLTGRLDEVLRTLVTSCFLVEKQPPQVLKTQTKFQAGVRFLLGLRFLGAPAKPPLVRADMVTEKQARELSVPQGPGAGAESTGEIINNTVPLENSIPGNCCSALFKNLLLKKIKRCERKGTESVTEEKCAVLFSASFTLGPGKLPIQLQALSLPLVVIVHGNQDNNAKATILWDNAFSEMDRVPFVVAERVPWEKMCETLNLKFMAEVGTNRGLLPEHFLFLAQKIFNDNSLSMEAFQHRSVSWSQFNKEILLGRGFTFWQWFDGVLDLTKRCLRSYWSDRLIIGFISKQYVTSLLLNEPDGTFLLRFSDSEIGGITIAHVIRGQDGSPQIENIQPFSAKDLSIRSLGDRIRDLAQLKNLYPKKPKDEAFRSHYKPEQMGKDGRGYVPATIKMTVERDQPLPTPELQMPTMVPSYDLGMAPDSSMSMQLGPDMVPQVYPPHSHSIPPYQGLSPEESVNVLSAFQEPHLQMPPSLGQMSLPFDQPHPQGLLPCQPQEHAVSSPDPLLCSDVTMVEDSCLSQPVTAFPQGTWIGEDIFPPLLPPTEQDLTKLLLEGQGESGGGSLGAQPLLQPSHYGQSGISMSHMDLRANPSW

IL-4 induced luciferase reporter gene expression (multimerized STAT6 response elements) in HepG2 cells [1]: < 3 fold
Molecule: NCoA-1 (nuclear coactivator 1), full length (from UniProt P70365 2-1447)

Extinction 493 nm [2]: 0.795
B1: His-tagged NCoA-1 aa 212-463 (protein)
chain: MHHHHHHSSGLVPRGSGMKETAAAKFERQHMDSPDLGTDDDDKAMGYLWIQEACQRYEVMQCFTVSQPKSIQEDGEDFQSCLICIARRLPRPPAITGVESFMTKQDTTGKIISIDTSSLRAAGRTGWEDLVRKCIYAFFQPQGREPSYARQLFQEVMTRGTASSPSYRFILNDGTMLSAHTKCKLCYPQSPDMQPFIMGIHIIDREHSGLSPQDDSNSGMSIPRINPSVNPGISPAHGVTRSSTLPPSNNNMVSARVNRQQSSDLNSSSSHTNSSNNQGNFGCSPGNQIVANVALNQGQAGSLEHHHHHH
